According to patent US20240116985A1, “STAPLED PEPTIDES AND METHODS THEREOF” (priority 2020, published 2024):

Molecular target: full-length beta-Catenin (Uniprot ID P35222) (Homo sapiens (Human)) (UniProt P35222)
Experiment: fluorescence polarization competition; full-length beta-catenin, 5FAM-TCF4(10-53) probe displaced
Target sequence in this assay (P35222 whole entry): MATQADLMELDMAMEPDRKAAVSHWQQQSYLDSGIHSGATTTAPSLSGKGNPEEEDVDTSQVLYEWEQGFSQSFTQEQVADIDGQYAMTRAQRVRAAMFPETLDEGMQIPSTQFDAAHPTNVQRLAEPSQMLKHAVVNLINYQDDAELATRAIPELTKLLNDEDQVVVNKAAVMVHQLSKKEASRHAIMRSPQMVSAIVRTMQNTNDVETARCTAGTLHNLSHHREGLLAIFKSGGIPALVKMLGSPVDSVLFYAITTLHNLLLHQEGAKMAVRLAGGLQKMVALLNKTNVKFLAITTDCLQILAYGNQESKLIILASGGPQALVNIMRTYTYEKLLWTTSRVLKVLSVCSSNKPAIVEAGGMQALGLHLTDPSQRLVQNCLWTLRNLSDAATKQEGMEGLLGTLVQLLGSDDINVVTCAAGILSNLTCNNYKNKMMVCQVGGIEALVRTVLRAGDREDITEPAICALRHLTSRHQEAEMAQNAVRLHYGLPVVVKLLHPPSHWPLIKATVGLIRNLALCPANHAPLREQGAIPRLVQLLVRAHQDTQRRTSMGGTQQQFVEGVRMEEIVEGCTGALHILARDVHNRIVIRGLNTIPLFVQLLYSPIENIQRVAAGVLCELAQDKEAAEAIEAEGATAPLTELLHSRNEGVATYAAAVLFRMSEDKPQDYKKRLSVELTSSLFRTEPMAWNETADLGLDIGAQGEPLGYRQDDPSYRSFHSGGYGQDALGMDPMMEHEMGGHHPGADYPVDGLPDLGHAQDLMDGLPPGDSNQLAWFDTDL

Substance	IC50
MeSO2-PL3-Asp-Npg-B5-Asp-Asp-Ala-Ala-Phe-Asn-PyrS2-3Thi-BztA-Gln-NH2 (peptide)	10 nM
Ac-PL3-Asp-Npg-B5-Asp-Asp-Ala-Ala-Phe-Leu-PyrS2-2CNF-BztA-Gln-NH2 (peptide)	16 nM
Ac-PL3-Asp-Npg-B5-Asp-Asp-Ala-Ala-Phe-Leu-PyrS2-3CNF-BztA-Gln-NH2 (peptide)	81 nM

The remaining lines, values ahead:

IC50	Substance
987 nM	Ac-PL3-Asp-Npg-B5-Asp-Asp-Ala-Ala-Phe-Leu-PyrS2-4CNF-BztA-Gln-NH2 (peptide)
7 nM	MeSO2-PL3-Asp-Npg-B5-Asp-TfeGA-Ala-Ala-Phe-Asn-PyrS2-3Thi-BztA-Gln-NH2 (peptide)

Molecular target: full-length beta-Catenin (Uniprot ID P35222) (Homo sapiens (Human)) (UniProt P35222)
Experiment: fluorescence polarization competition; full-length beta-catenin, 5FAM-TCF4(10-53) probe as competitor
Target sequence in this assay (P35222 2-781 limits assumed): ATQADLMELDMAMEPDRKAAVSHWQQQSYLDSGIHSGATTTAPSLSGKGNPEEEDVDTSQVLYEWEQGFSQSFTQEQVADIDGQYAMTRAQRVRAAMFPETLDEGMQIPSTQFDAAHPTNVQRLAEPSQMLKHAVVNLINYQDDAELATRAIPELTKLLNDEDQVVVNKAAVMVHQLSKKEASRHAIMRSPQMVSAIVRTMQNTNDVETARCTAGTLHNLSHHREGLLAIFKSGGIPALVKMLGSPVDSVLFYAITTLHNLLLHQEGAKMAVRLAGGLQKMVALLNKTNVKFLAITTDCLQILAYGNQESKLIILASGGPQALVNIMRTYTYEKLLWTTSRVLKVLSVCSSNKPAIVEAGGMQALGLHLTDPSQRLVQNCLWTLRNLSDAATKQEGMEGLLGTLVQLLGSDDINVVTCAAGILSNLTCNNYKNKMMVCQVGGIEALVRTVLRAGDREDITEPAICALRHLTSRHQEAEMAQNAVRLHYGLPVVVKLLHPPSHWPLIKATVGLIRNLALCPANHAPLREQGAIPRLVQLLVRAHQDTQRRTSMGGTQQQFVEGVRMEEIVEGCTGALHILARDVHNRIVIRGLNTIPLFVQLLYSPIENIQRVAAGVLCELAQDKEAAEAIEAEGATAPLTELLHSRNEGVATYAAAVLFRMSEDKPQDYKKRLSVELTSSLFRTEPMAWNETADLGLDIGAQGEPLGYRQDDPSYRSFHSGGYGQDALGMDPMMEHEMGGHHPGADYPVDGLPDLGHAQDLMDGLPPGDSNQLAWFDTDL

IC50	Substance
6290 nM	Ac-PL3-Asp-Npg-B5-Asp-3COOHF-Ala-Ala-Phe-Leu-PyrS2-2F3MeF-2F3MeW-Gln-NH2 (peptide)
5 nM	Ac-PL3-Asp-Npg-B5-Asp-[CH2CChCO2H]TriAzDap-Ala-Ala-Phe-Leu-PyrS2-3Thi-BztA-Gln-NH2 (peptide)
5 nM	Ac-PL3-Asp-Npg-B5-Asp-[CH2CCpCO2H]TriAzDap-Ala-Ala-Phe-Leu-PyrS2-3Thi-BztA-Gln-NH2 (peptide)
79 nM	Ac-PL3-Asp-Npg-B5-Asp-3COOHF-Ala-Ala-Phe-Leu-PyrS2-2F3MeF-SbMe2NapA-Gln-NH2 (peptide)

Molecular target: full-length beta-Catenin (Uniprot ID P35222) (Homo sapiens (Human)) (UniProt P35222)
Experiment: fluorescence polarization competition; displacement of 5FAM-TCF4(10-53) from full-length beta-catenin
Target sequence in this assay (P35222 whole entry): as the sequence (P35222 whole entry) above

IC50	Substance
10 nM	I-1519: Ac-PL3-Asp-Cha-B5-Asp-Asp-Ala-Ala-Phe-Leu-PyrS2-3Thi-BztA-Gln-NH2 (peptide)
